From US20240392024A1 (SHANGHAI CELGEN BIO PHARMACEUTICAL, published 2024)
Where a chain is given by its changes, count along the chain named. Several values for one entry are separate records, joined by “and”; a condition that tells them apart may be missing. Equal values may be shown once.

T1: TNFR2-His (Sino Biological, 10417-H08H, NP_001057.1 Met1-Asp257, with multi-histidine tag expressed on … (human, UniProt P20333 23-257))
T1 construct: range 1-257; Bought protein; also called recombinant human TNFR2 protein; TNFR2-His antigen; not shown: C-terminal multi-histidine tag
T1 sequence (looked up): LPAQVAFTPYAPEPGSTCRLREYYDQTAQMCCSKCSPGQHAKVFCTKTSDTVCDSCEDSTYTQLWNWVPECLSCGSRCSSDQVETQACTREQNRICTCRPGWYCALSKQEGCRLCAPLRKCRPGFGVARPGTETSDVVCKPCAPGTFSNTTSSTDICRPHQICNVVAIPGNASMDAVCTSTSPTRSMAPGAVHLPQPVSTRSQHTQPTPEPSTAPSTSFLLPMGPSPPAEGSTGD

T2: human TNFR2 on the cell membrane (human, UniProt P20333 23-461)
T2 construct: whole, on cells; One molecule for all cell formats; also called TNFR2-CHO cells; CHO-TNFR2
T2 sequence (looked up): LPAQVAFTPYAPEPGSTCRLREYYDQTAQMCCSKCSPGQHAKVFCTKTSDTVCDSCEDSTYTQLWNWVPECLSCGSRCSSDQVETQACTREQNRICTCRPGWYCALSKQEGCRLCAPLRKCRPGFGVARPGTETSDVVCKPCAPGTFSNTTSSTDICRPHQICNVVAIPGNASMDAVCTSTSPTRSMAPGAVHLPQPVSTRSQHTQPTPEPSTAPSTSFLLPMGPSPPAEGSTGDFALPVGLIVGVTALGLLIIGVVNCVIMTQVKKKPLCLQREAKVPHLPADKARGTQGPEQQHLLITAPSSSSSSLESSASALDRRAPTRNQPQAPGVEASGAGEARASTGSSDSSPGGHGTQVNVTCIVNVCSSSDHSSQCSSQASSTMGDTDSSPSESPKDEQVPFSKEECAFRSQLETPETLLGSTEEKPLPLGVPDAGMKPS

B1: 11G2huVH1 + huVL3(P07271) (antibody, V domains shown)
VH: QVQLVQSGAEVKKPGASVKLSCKASGYTFITYDINWVRQAPGQGLEWIGWIYPRDGNTQFNENFKGKATMTVDESTSTAYMEVRSLRSDDTAVYYCARGDRDYGYFDVWGQGTTVTVSS
VL: DIQMTQSPSSLSASVGDRVTITCQASQDISNYLNWYQQKPGKAPKLLIYFKSKLETGVPSRFSGSGSGTDFTFTISSLQPEDIATYYCQQGNTLPLTFGGGTKLEIK
notes: Humanized 11G2
B2: 11G2huVH2 + huVL3(P07272) (antibody, V domains shown)
VH: B1 VH with L20V, K67R, A68V, V72T, E74T, V83L
VL: B1 VL
notes: Humanized 11G2
B3: 11G2huVH3 + huVL3(P07273) (antibody, V domains shown)
VH: QVQLVQSGAEVKKPGASVKVSCKASGYTFITYDINWVRQATGQGLEWIGWIYPRDGNTQFNENFQGRVTMTRNTSISTAYMELSSLRSEDTAVYYCARGDRDYGYFDVWGQGTTVTVSS
VL: B1 VL
notes: Humanized 11G2
B4: 11G2huVH4 + huVL3(P07274) (antibody, V domains shown)
VH: B3 VH with T41P, F60Y, N61A, E62Q, N63K, R72T, N73D, I76T, S84R, E89D
VL: B1 VL
notes: Humanized 11G2
B5: 11G2huVH5 + huVL2(P07270) (antibody, V domains shown)
VH: B3 VH with F60Y, N61A, E62Q, N63K
VL: B1 VL with Q24R, E55H, T56S, F73L, I83F
notes: Humanized 11G2
B6: 11G2huVH4 + huVL2(P07269) (antibody, V domains shown)
VH: B3 VH with T41P, F60Y, N61A, E62Q, N63K, R72T, N73D, I76T, S84R, E89D
VL: B1 VL with Q24R, E55H, T56S, F73L, I83F
notes: Humanized 11G2
B7: 11G2huVH5 + huVL3(P07275) (antibody, V domains shown)
VH: B3 VH with F60Y, N61A, E62Q, N63K
VL: B1 VL
notes: Humanized 11G2
B8: 12E12huVH3 + huVL2(P07282) (antibody, V domains shown)
VH: QVQLVQSGAEVKKPGASVKVSCKVSGFNIKDFYIHWVRQAPGKGLEWMGRVDPEDGNTEYAQKFQGRVTMTTDTSTDTAYMELSSLRSEDTAVYYCSTWDGFSYFDYWGQGTTVTVSS
VL: QAVVTQEPSLTVSPGGTVTLTCRSSTGPVTTNNYANWVQQKPGQAFRGLIGGTNDRAPGVPARFSGSLLGGKAALTLSGAQPEDEAEYYCALWYRNHWVFGGGTKLTVL
notes: Humanized 12E12
B9: 12E12huVH5 + huVL2(P07286) (antibody, V domains shown)
VH: B8 VH with Q1E, S17T, V20I, R38Q, M48I, Q62E, M70I, T72A
VL: B8 VL
notes: Humanized 12E12
B10: 12E12huVH3 + huVL4(P07290) (antibody, V domains shown)
VH: B8 VH
VL: EAVVTQSPATLSLSPGERATLSCRSSTGPVTTNNYANWVQQKPGQAFRGLIGGTNDRAPGIPARFSGSGSGTDTTLTISSLQPEDFAVYYCALWYRNHWVFGGGTKLEIK
notes: Humanized 12E12
B11: 12E12huVH5 + huVL4(P07292) (antibody, V domains shown)
VH: B8 VH with Q1E, S17T, V20I, R38Q, M48I, Q62E, M70I, T72A
VL: B10 VL
notes: Humanized 12E12
B12: 12E12huVH4 + huVL4(P07291) (antibody, V domains shown)
VH: B8 VH with Q1E, S17T, V20I, R38Q, M48I, Q62P, K63N, G66D, M70I, T72A
VL: B10 VL
notes: Humanized 12E12
B13: 12E12huVH1+huVL1(P07277) (antibody, V domains shown)
VH: EVQLVQSGAEVKKPGASVKLSCTVSGFNIKDFYIHWVRQAPGQGLEWIGRVDPEDGNTEYAPNFQDRATMTTDTSTNTAYLELSSLRSEDTAVYYCSTWDGFSYFDYWGQGTTVTVSS
VL: B8 VL with L69I, G71D, A73T, A80V
B14: 12E12huVH2+huVL1(P07278) (antibody, V domains shown)
VH: B13 VH with E1Q, L20V, T23K, N77S
VL: B8 VL with L69I, G71D, A73T, A80V
B15: 12E12huVH2+huVL2(P07279) (antibody, V domains shown)
VH: B13 VH with E1Q, L20V, T23K, N77S
VL: B8 VL
B16: 12E12huVH3+huVL1(P07281) (antibody, V domains shown)
VH: B8 VH
VL: B8 VL with L69I, G71D, A73T, A80V
B17: 12E12huVH4+huVL2(P07284) (antibody, V domains shown)
VH: B13 VH with S17T, L20I, T23K, R38Q, Q43K, A68V, M70I, T72A, N77D, L81M
VL: B8 VL
B18: 12E12huVH1+huVL4(P07288) (antibody, V domains shown)
VH: B13 VH
VL: B10 VL
B19: 12E12huVH2+huVL4(P07289) (antibody, V domains shown)
VH: B13 VH with E1Q, L20V, T23K, N77S
VL: B10 VL

biological target: T1, TNFR2-His (Sino Biological, 10417-H08H, …); assay: ELISA, coated TNFR2-His
In short: (§1)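 Recombinant human TNFR2 with a C-terminal His tag was coated onto plates, which were then blocked. Antibodies in serial dilution were incubated on the plates, followed by an enzyme-labelled anti-IgG secondary antibody. After TMB development, plates were read on a microplate reader, and EC50 was derived from the dilution series.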

| Binder | EC50 [nM] |
| --- | --- |
| B1 | 0.479 |
| B2 | 0.576 |
| B3 | 0.521 |
| B4 | 0.5 |
| B5 | 0.353 |
| B6 | 0.364 |
| B7 | 0.149 |

biological target: T2, human TNFR2 on the cell membrane; assay: flow cytometry, CHO-TNFR2 cells
In short: (§2)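 To build the cell line, CHO cells received a pcDNA3.4 construct encoding human TNFR2, underwent drug selection and were single-clone sorted. Serial antibody dilutions were incubated with these cells in 96-deep-well plates, followed by washing and detection with a fluorescent anti-IgG secondary antibody on a Beckman CytoFLEX. The reported EC50 is taken from the dilution series.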

| Binder | EC50 [nM] |
| --- | --- |
| B4 | 0.226 |
| B5 | 0.162 |
| B6 | 0.183 |
| B7 | 0.056 |

biological target: T2, human TNFR2 on the cell membrane; assay: flow cytometry on CHO-TNFR2 cells
In short: as §2

| Binder | EC50 [µg/mL] |
| --- | --- |
| B4 | 0.0338 |
| B5 | 0.0242 |
| B6 | 0.0273 |
| B7 | 0.0084 |

biological target: T2, human TNFR2 on the cell membrane; assay: flow cytometry on CHO-TNFR2 cells; remark: another data set of the same source
In short: as §2

| Binder | EC50 |
| --- | --- |
| B8 | 0.0203 µg/mL and 0.136 nM |
| B9 | 0.149 µg/mL and 1 nM |
| B10 | 0.0367 µg/mL and 0.246 nM |
| B11 | 0.0329 µg/mL and 0.221 nM |
| B12 | 0.0215 µg/mL and 0.144 nM |

biological target: T1, TNFR2-His (Sino Biological, 10417-H08H, …); assay: ELISA, plate coated with TNFR2-His
In short: as §1

| Binder | EC50 [µg/mL] |
| --- | --- |
| B1 | 0.0715 |
| B2 | 0.0859 |
| B3 | 0.0778 |
| B4 | 0.0746 |
| B5 | 0.0527 |
| B6 | 0.0544 |
| B7 | 0.0222 |

biological target: T1, TNFR2-His (Sino Biological, 10417-H08H, …); assay: BLI, antibody captured on AHC probe, TNFR2 in solution
In short: (§3)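 On an Octet run in Basic Kinetics mode, bio-layer interferometry was used to obtain Kon, koff and Kd from kinetic association measurements. Antibodies (50 nM in Q buffer) were held on antibody-capture sensors before exposure to recombinant human TNFR2 in a 2-fold dilution series in Q buffer from a top concentration of 100 nM.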

| Binder | Kd [nM] | koff [s⁻¹] | kon [M⁻¹ s⁻¹] |
| --- | --- | --- | --- |
| B8 | 6.38 | 0.00487 | 764000 |
| B9 | 1.71 | 0.00197 | 1.15e+06 |
| B10 | 5.03 | 0.00407 | 810000 |
| B11 | 3.14 | 0.0034 | 1.08e+06 |
| B12 | 4.84 | 0.00379 | 782000 |

biological target: T1, TNFR2-His (Sino Biological, 10417-H08H, …); assay: ELISA, plate coated with TNFR2-His (first test)
In short: as §1

| Binder | EC50 |
| --- | --- |
| B13 | 0.0606 µg/mL and 0.406 nM |
| B8 | 0.045 µg/mL and 0.301 nM |
| B14 | 0.0614 µg/mL and 0.411 nM |
| B15 | 0.0687 µg/mL and 0.46 nM |
| B16 | 0.0596 µg/mL and 0.399 nM |
| B17 | 0.049 µg/mL and 0.328 nM |
| B9 | 0.0754 µg/mL and 0.505 nM |
| B10 | 0.059 µg/mL and 0.395 nM |
| B18 | 0.0739 µg/mL and 0.495 nM |
| B19 | 0.0672 µg/mL and 0.45 nM |
| B11 | 0.0533 µg/mL and 0.357 nM |
| B12 | 0.0416 µg/mL and 0.279 nM |

biological target: T1, TNFR2-His (Sino Biological, 10417-H08H, …); assay: BLI, antibody captured on AHC probe, TNFR2-His in solution
In short: as §3

| Binder | Kd [nM] | koff [s⁻¹] | kon [M⁻¹ s⁻¹] |
| --- | --- | --- | --- |
| B1 | 8.4 | 0.00251 | 299000 |
| B2 | 10.6 | 0.00293 | 276000 |
| B3 | 10.2 | 0.00255 | 249000 |
| B4 | 20.1 | 0.00511 | 254000 |
| B5 | 8.13 | 0.00265 | 326000 |
| B6 | 13.5 | 0.00379 | 281000 |
| B7 | 14.1 | 0.00302 | 213000 |
